Target: the molecule itself
Assay: AUC; sedimentation velocity, Y99C MIF homotrimer at three loading concentrations, PBS, 20°C, 50,000 rpm, c(s) analysis in SEDFIT

B1: Y99C MIF homotrimer (natural protein, human, UniProt P14174 1-115, looked up)
chain: MPMFIVNTNVPRASVPDGFLSELTQQLAQATGKPPQYIAVHVVPDQLMAFGGSSEPCALCSLHSIGKIGGAQNRSYSKLLCGLLAERLRISPDRVYINYCDMNAANVGWNNSTFA
notes: untagged; Made by site-directed mutagenesis of the WT MIF cDNA in pET-11b (construct from Pantouris et al., 2018); also called Y99C variant; homotrimeric Y99C MIF; source: E. coli BL21-Gold (DE3), pET-11b, purified (Q-Sepharose and SP flow-through, Superdex 75)
stoichiometry N: 3
